From US20050244966A1, “Insulin producing cells” (Ramot At Tel Aviv University Ltd., priority 2003, published 2005) come the findings set out here.

Test [1] concerns FH-B-TPN cells. As to the kind of experiment: Insulin content of FH-B-TPN cells (RIA/ELISA of cell extracts). The class given is cell-based, human. Conditions: for Insulin content: RIA; for Fold increase (insulin content): vs CM. Here is the method: FH cells were isolated and cultured as described (19), in Dulbecco's modified Eagle's medium containing 25 mM glucose and supplemented with 10% fetal bovine serum (FBS), 100 U/ml penicillin, 100 μg/ml streptomycin, 5 μM hydrocortisone, and 5 μg/ml insulin. A subclone of FH cells that was stably transduced with hTERT, designated FH-B-hTERT (FH-B), was cultured in the same medium, as described (20). FH-B cells transduced with the Pdx1 gene (see below), designated FH-B-TPN cells, were maintained in the same culture medium, with the exception of hydrocortisone and insulin (complete medium CM). For incubation in serum-free medium, the cells were placed in DMEM containing antibiotics, in the presence of 100 ng/ml insulin, 55 ng/ml transferrin, and 50 pg/ml selenium (ITS, Sigma). For all experiments activin A (Cytolab/PreproTech Asia, Rehovot, Israel) was added at a final concentration of 4 nM. except for those aimed at promoting differentiation of FH-B-TPN cells towards the beta-cell phenotype. There, addition of Act-A, as well as betacellulin (BTC, R&D Systems, Minneapolis, Minn.), nicotinamide (NA), exendin-4, and hepatocyte growth factor (HGF) (the last 3 compounds from Sigma-Aldrich) was at concentrations detailed herein below.
(§1) Insulin secretion from FH-B-TPN cells was measured by static incubation as previously described (2). Cells were plated in 24-well plates at 10^5 cells per well. The cells were preincubated for 1 hour in Krebs-Ringer buffer (KRB), followed by incubation for the indicated period of time in KRB containing 0.5 mM 1-isobutyl 3-methylxanthine (IBMX) and glucose at various concentrations. The cells were then extracted in acetic acid, and the amount of insulin in the buffer and cell extract was determined by radioimmunoassay (RIA) using the INSIK-5 kit (DiaSorin, Vercelli, Italy) according to the manufacturer. This assay has <20% crossreactivity with proinsulin. In addition, insulin content was determined using an ELISA kit (Diagnostic Systems Laboratories, Webster, Tex. or (Mercodia, Uppsala, Sweden), which recognizes only mature insulin. Insulin content was normalized to total cellular protein, measured by the Bio-Rad (Hercules, Calif.) Protein Assay kit. Human C-peptide in the cell extract was determined using a RIA kit (DiaSorin, Vercelli, Italy) or ELISA kit (Mercodia, Uppsala, Sweden) according to the manufacturers.
Background: In an ELISA, binding on a coated surface is turned into a signal by an enzyme label.

For test [2], the system named is FH-B-TPN cells. As to the kind of experiment: RT-PCR analysis of gene expression in FH-B-TPN cells. It is filed as cell-based, human. Conditions: 4 nM activin A; FIG. 7. The procedure:
Total RNA was extracted from cultured cells, mature human hepatocytes (obtained from Incara Cell Technologies, North Carolina), and human pancreatic islets (obtained through the Juvenile Diabetes Research Foundation Islet Distribution Program), using commercial kits (High Pure RNA isolation kit, Roche Molecular Biochemicals, Mannhein, Germany; Trizol Reagent, Invitrogen Life Technologies, Carlsbad, Calif.).
Specific transcripts were analyzed with Promega (Madison, Wis.) RT-PCR kit or GeneAmp Gold RNA PCR kit (Perkin Elmer Corp., Indianapolis, Ind.) or Superscript III RT-PCR (Invitrogene Life Technologies, Carlsbad, Calif.) according to the manufacturers. The absence of DNA contamination in RNA samples was confirmed with PCR primers flanking an intron. cDNA was amplified for 40 cycles (94° C. for 45 sec; annealing under conditions indicated in Table 1 below for 45 sec; 72° C. for 40 sec), using the primer pairs listed in Table 1 below.
PCR products were separated by electrophoresis in 1.5%-2.5% agarose gels and visualized by ethidium bromide staining.

Test [3] concerns FH-B-TPN cells. As to the kind of experiment: Immunofluorescence analyses of protein expression in FH-B-TPN cells. It is filed as cell-based, human. The conditions noted are these: 6 days in serum-free medium with ITS and activin A; FIG. 8. Here is the method: FH-B-TPN cells plated in 6-well plates on sterilized coverslips were fixed in 4% paraformaldehyde. For cytoplasmic antigens, cells were blocked for 10 min at room temperature in 5% bovine serum albumin, 5% FBS and 0.1% Triton X-100, and stained with the antibodies as detailed in Table 2 diluted in blocking solution, for 1 hour at room temperature.
For immunostaining of nuclear antigens, cells were permeabilized in 0.25% NP40 for 10 min at room temperature prior to blocking, followed by incubation with the primary antibody as detailed in Table 2 hereinabove. The stained cells were photographed under a Zeiss confocal microscope. FH-B, Cos7 or 293T cells were used as negative controls. Nuclei were visualized with DAPI (Roche) staining for 5 minutes at room temperature. Kidney tissue was fixed in 4% paraformaldehyde, embedded in paraffin, and sectioned. Sections were rehydrated, washed in PBS, and unmasked (if needed) in Unmasking Solution (Vector Laboratories, Burlingame, Calif.) according to the manufacturer. Sections were blocked for 2 h in 0.2% Tween 20 and 0.2% gelatin, incubated overnight at 4° C. with primary antibodies and 2 h at room temperature with the secondary antibodies as detailed in Table 2 hereinabove, stained with DAPI, and mounted. BrdU staining was performed as previously described (28b).

Test [4] deals with FH-B-TPN cells. As to the kind of experiment: Human C-peptide in cell extract and culture medium (ELISA). The class given is cell-based. The conditions noted are these: SFM (6 d) then 3 nM Act-A in SFM (3 d). Here is the method: as §1
Test [5] relates to FH-B-TPN cells. As to the kind of experiment: Cell doubling time by cell counting; TUNEL assay. The class given is cell-based, human. An excerpt:
The cell doubling time, as determined by cell counting, was not affected by Act-A treatment in CM. […] No apoptotic cells were detected using a TUNEL assay under any of the conditions (data not shown).

Where [6] appears, read: FH-B-TPN cells, 4 nM in CM (6 d).
Where [7] appears, read: SFM (6 d) then 3 nM Act-A in SFM (3 d).

B1: activin A (protein, UniProt P08476 311-426, looked up)
Inhibin beta A chain: GLECDGKVNICCKKQFFVSFKDIGWNDWIIAPSGYHANYCEGECPSHIAGTSGSSLSFHSTVINHYRMRGHSPFANLKSCCVPTKLRPMSMLYYDDGQNIIKKDIQNMIVEECGCS
In the case of B1, in the test on FH-B-TPN cells [1] (6 days in serum-free medium supplemented with both ITS and activin A), the “Insulin content compared with serum-free medium without activin A” value was “further doubling”. Also, the Insulin content came to 729 ± 55 ng/10^6 cells with FH-B-TPN cells [1] (setting [6]); 1661 ± 319 ng/10^6 cells in the test on FH-B-TPN cells [1] (FH-B-TPN cells, Act-A 3 nM in CM (3 d) + CM (6 d), mean ± SD (n = 3)); 1493 ± 229 ng/10^6 cells in the test on FH-B-TPN cells [1] (FH-B-TPN cells, Act-A 3 nM in CM (3 d) + SFM (6 d), mean ± SD (n = 3)); 1399 ± 269 ng/10^6 cells with FH-B-TPN cells [1] (FH-B-TPN cells, Act-A 3 nM in CM (3 d), mean ± SD (n = 3)); 2143 ± 179 ng/10^6 cells in the test on FH-B-TPN cells [1] (FH-B-TPN cells, Act-A 3 nM in SFM (3 d), mean ± SD (n = 3)). Further, the “Fold increase (insulin content)” value in the test on FH-B-TPN cells [1] (FH-B-TPN cells, Act-A 3 nM in CM (3 d) + CM (6 d)) turned out to be 8.8; with FH-B-TPN cells [1] (FH-B-TPN cells, Act-A 3 nM in CM (3 d) + SFM (6 d)), 7.9; in the test on FH-B-TPN cells [1] (FH-B-TPN cells, Act-A 3 nM in CM (3 d)), 7.4; in the test with FH-B-TPN cells [1] (FH-B-TPN cells, Act-A 3 nM in SFM (3 d)) it was 11.4; in the test with FH-B-TPN cells [1] (FH-B-TPN cells, SFM (6 d) + Act-A 3 nM in SFM (3 d)), 33. Further, in the test with FH-B-TPN cells [1] (FH-B-TPN cells, Act-A 1-8 nM in regular medium (CM) for 6 days, FIG. 9), the “Concentration giving maximal (optimal) increase in insulin content” value is 3 nM. For the same molecule, the “Increase over insulin content of cells incubated 9 days in SFM without Act-A” value with FH-B-TPN cells [1] (setting [7]) is given as 2.6 fold. Further, the “Insulin content as share of the cellular protein content” value in the test with FH-B-TPN cells [1] (setting [7]) is on record as 6%. Besides, in the test on FH-B-TPN cells [1] (setting [7]), the “Insulin content relative to normal human pancreatic islets” value is listed as “about 60%”. In addition, the “Share of stored insulin in the form of mature protein (ELISA vs RIA)” value in the test on FH-B-TPN cells [1] (setting [7]) was determined as 95%. For the same molecule, in the test on FH-B-TPN cells [2], the “Glucagon mRNA” value was “disappeared after an overnight treatment”. Also, in the test with FH-B-TPN cells [2], the “PAX4 and GLUT2 mRNAs” value was “appeared following 3 days of treatment”. Further, the PP staining entry with FH-B-TPN cells [3] is listed as “disappeared”. Besides, the “Percent of cells stained for GK, PC1/3, and PC2” value in the test with FH-B-TPN cells [3] is recorded as “increase”. The “Percent of cells stained for NGN3” value in the test with FH-B-TPN cells [3] was “significant decrease”. In addition, in the test with FH-B-TPN cells [3], the “Percentage of cells stained for ISL1, NKX6.1, and NKX2.2” value is on record as “significant increase”. Also, the “Human C-peptide secreted into the culture medium” value in the test on FH-B-TPN cells [4] came to 43.5±1.3 ng/10^6 cells. The “Human C-peptide levels in cells” value in the test on FH-B-TPN cells [4] (ELISA) is listed as 5153±180 ng/10^6 cells. Moreover, in the test on FH-B-TPN cells [5], the “Cell doubling time compared with cells growing in CM” value is “not affected”.

B2: betacellulin (protein, UniProt P35070 32-111, looked up)
Betacellulin: DGNSTRSPETNGLLCGDPEENCAATTTQSKRKGHFSRCPKQYKHYCIKGRCRFVVAEQTPSCVCDEGYIGARCERVDLFY
notes: betacellulin (R&D Systems), soluble factor
With B2, in the test on FH-B-TPN cells [1] (setting [6]), the Insulin content was 264 ± 7 ng/10^6 cells and the “Fold increase (insulin content)” value is given as 1.4.
